Here are results for three molecules from article PMC4844672 (Nature Communications, 2016).

For series [1], the target named is GbLFY-SAM (N-terminal SAM domain of Ginkgo biloba LEAFY, wild type) (Ginkgo biloba). In words: SEC-MALS; SEC-MALLS on Superdex-200 10/300GL in buffer A, 20 °C, 0.5 ml/min; 50 µl at ~4.5 mg/ml injected; [RE+TE] is an equimolar mixture of the TE and RE mutants. On the technique in general: SEC sorts molecules by how far they enter the pores of the column.
In another series the target is T1, AtLFY (Arabidopsis thaliana, UniProt Q00958 1-420).
T1 sequence: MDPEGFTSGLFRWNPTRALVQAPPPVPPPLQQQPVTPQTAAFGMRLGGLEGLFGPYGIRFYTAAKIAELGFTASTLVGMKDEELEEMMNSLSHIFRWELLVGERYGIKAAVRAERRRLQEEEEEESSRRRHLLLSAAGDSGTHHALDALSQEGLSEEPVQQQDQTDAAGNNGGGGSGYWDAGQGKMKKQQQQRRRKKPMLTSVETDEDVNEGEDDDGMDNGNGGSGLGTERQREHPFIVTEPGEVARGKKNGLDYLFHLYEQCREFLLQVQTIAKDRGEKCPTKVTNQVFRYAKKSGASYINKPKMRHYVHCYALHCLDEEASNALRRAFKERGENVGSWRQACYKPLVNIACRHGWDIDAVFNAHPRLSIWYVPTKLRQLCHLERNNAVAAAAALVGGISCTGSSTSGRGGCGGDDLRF
In words: EMSA; 500 nM; behaves like GbLFYΔ; EMSA: 20 mM Tris-HCl pH 7.5, 150 mM NaCl, 1% glycerol, 0.25 mM EDTA, 2 mM MgCl2, 0.01% Tween-20, 3 mM TCEP, 28 ng/ml fish sperm DNA, 10 nM probe, 25-500 nM prot.

Series [2] concerns the molecule itself. In words: SEC; Superdex-200 10/300GL in buffer A, 4 °C, calibrated with protein standards; molecular mass estimated at different protein concentrations.

One may read the stoichiometry N as the number of molecules, sites or subunits per partner or assembly.

“GbLFY-SAM (N-terminal SAM domain of Ginkgo biloba LEAFY, wild type) (domain or fragment)”: the stoichiometry N in series [1] was below 8 monomers.

B1: AGI-II (dsDNA)
DNA 1: CGTTTAAATTTAATCCAATGGTTACAATTTTAATACTATCAAATGTCTATTGGATTTATACCCAATGTGTTAATGGGTTG
DNA 2: CAACCCATTAACACATTGGGTATAAATCCAATAGACATTTGATAGTATTAAAATTGTAACCATTGGATTAAATTTAAACG
In the case of B1, the binding result with AtLFY is “binds”.

B2: AtLFY-SAM (SAM domain of A. thaliana LEAFY) (domain or fragment, Arabidopsis thaliana, UniProt Q00958 38-151, looked up)
chain: QTAAFGMRLGGLEGLFGPYGIRFYTAAKIAELGFTASTLVGMKDEELEEMMNSLSHIFRWELLVGERYGIKAAVRAERRRLQEEEEEESSRRRHLLLSAAGDSGTHHALDALSQ
notes: LEAFY (LFY) of Arabidopsis thaliana, residues 38-151 of the A. thaliana LFY cDNA (plasmid pETH201, vector pETM-11); also called SAM domain of A. thaliana LFY; source: E. coli Rosetta2 (DE3), purified (Ni-Sepharose, TEV cleavage, Superdex-200); not shown: 6 x His, N-terminal, cleaved
Take B2: the binding result in series [2] is listed as “binds”.
